Measurements as given in PMC8041823, “Structural comparison of Acinetobacter baumannii β-ketoacyl-acyl carrier protein reductases in fatty acid and aryl polyene biosynthesis” (Scientific Reports, 2021).

Columns and labels:
[1] = target: Acinetobacter baumannii FabG (β-ketoacyl-ACP reductase of the fatty acid synthase gene cluster) (Acinetobacter baumannii (clinical CRAB strain C1)) (UniProt V5VHN7); experiment: crystal structure; apo AbFabG, 1.79 Å, four molecules in the asymmetric unit
[2] = target: Acinetobacter baumannii ApeQ (β-ketoacyl-ACP reductase of the aryl polyene biosynthesis gene cluster) (Acinetobacter baumannii (clinical CRAB strain C1)); experiment: crystal structure; apo AbApeQ, space group P3_(1)2, four molecules in the asymmetric unit
[3] = target: Acinetobacter baumannii ApeQ (β-ketoacyl-ACP reductase of the aryl polyene biosynthesis gene cluster) (Acinetobacter baumannii (clinical CRAB strain C1)); experiment: crystal structure; AbApeQ co-crystallised with NADPH (1:3 molar ratio), space group P2_(1), four molecules in the asymmetric unit

Substance | stoichiometry N [1] | stoichiometry N [2] | stoichiometry N [3]
Acinetobacter baumannii FabG (β-ketoacyl-ACP reductase of the fatty acid synthase gene cluster) (from UniProt V5VHN7 1-244) (enzyme) | 4 |  | 
Acinetobacter baumannii ApeQ (β-ketoacyl-ACP reductase of the aryl polyene biosynthesis gene cluster) (enzyme) |  | 4 | 4
